The text below walks through data of patent publication US20120316071A1 (published 2012).

Sequences and labels used below:
B1: Fab VH1-46_IGHD6-6*01_IGHJ1*01 S102A/S103P/S104F/H111F (APFF) & L6_IGKJ1*01 S30G (Fab, V domains shown)
VH: QVQLVQSGAEVKKPGASVKVSCKASGYTFTSYYMHWVRQAPGQGLEWMGIINPSGGSTSYAQKFQGRVTMTRDTSTSTVYMELSSLRSEDTAVYYCAREEYAPFSAEYFQFWGQGTLVTVSS
VL: EIVLTQSPATLSLSPGERATLSCRASQSVGSYLAWYQQKPGQAPRLLIYDASNRATGIPARFSGSGSGTDFTLTISSLEPEDFAVYYCQQRSNWPPWTFGQGTKVEIKR
notes: Fab expressed in E. coli: VH joined to CH1 (Plasmid A, His6 and Flag tags), VL joined to kappa CL (Plasmid C); also called APFF S30G
B2: Fab VH1-46_IGHD6-6*01_IGHJ1*01 S102A/S103P/S104F/H111F (APFF) & L6_IGKJ1*01 S28Q (Fab, V domains shown)
VH: B1 VH
VL: B1 VL with S28Q, G30S
notes: Fab expressed in E. coli: VH joined to CH1 (Plasmid A, His6 and Flag tags), VL joined to kappa CL (Plasmid C); also called APFF S28Q
B3: Fab VH1-46_IGHD6-6*01_IGHJ1*01 S102A/S103P/S104F/H111F (APFF) & L6_IGKJ1*01 S30P (Fab, V domains shown)
VH: B1 VH
VL: B1 VL with G30P
notes: Fab expressed in E. coli: VH joined to CH1 (Plasmid A, His6 and Flag tags), VL joined to kappa CL (Plasmid C); also called APFF S30P
B4: Fab VH1-46_IGHD6-6*01_IGHJ1*01 S102A/S103P/S104F/H111F (APFF) & L6_IGKJ1*01 S30R (Fab, V domains shown)
VH: B1 VH
VL: B1 VL with G30R
notes: Fab expressed in E. coli: VH joined to CH1 (Plasmid A, His6 and Flag tags), VL joined to kappa CL (Plasmid C); also called APFF S30R
B5: Fab VH1-46_IGHD6-6*01_IGHJ1*01 S102A/S103P/S104F/H111F (APFF) & L6_IGKJ1*01 S30D (Fab, V domains shown)
VH: B1 VH
VL: B1 VL with G30D
notes: Fab expressed in E. coli: VH joined to CH1 (Plasmid A, His6 and Flag tags), VL joined to kappa CL (Plasmid C); also called APFF S30D
B6: Fab VH1-46_IGHD6-6*01_IGHJ1*01 S102A/S103P/S104F/H111F (APFF) & L6_IGKJ1*01 S30C (Fab, V domains shown)
VH: B1 VH
VL: B1 VL with G30C
notes: Fab expressed in E. coli: VH joined to CH1 (Plasmid A, His6 and Flag tags), VL joined to kappa CL (Plasmid C); also called APFF S30C
B7: Fab VH1-46_IGHD6-6*01_IGHJ1*01 S102A/S103P/S104F/H111F (APFF) & L6_IGKJ1*01 S28R (Fab, V domains shown)
VH: B1 VH
VL: B1 VL with S28R, G30S
notes: Fab expressed in E. coli: VH joined to CH1 (Plasmid A, His6 and Flag tags), VL joined to kappa CL (Plasmid C); also called APFF S28R
B8: Fab VH1-46_IGHD6-6*01_IGHJ1*01 S102A/S103P/S104F/H111F (APFF) & L6_IGKJ1*01 S30T (Fab, V domains shown)
VH: B1 VH
VL: B1 VL with G30T
notes: Fab expressed in E. coli: VH joined to CH1 (Plasmid A, His6 and Flag tags), VL joined to kappa CL (Plasmid C); also called APFF S30T
B9: Fab VH1-46_IGHD6-6*01_IGHJ1*01 S102A/S103P/S104F/H111F (APFF) & L6_IGKJ1*01 S30A (Fab, V domains shown)
VH: B1 VH
VL: B1 VL with G30A
notes: Fab expressed in E. coli: VH joined to CH1 (Plasmid A, His6 and Flag tags), VL joined to kappa CL (Plasmid C); also called APFF S30A
B10: Fab VH1-46_IGHD6-6*01_IGHJ1*01 S102A/S103P/S104F/H111F (APFF) & L6_IGKJ1*01 S28T (Fab, V domains shown)
VH: B1 VH
VL: B1 VL with S28T, G30S
notes: Fab expressed in E. coli: VH joined to CH1 (Plasmid A, His6 and Flag tags), VL joined to kappa CL (Plasmid C); also called APFF S28T
B11: Fab VH1-46_IGHD6-6*01_IGHJ1*01 S102A/S103P/S104F/H111F (APFF) & L6_IGKJ1*01 S30L (Fab, V domains shown)
VH: B1 VH
VL: B1 VL with G30L
notes: Fab expressed in E. coli: VH joined to CH1 (Plasmid A, His6 and Flag tags), VL joined to kappa CL (Plasmid C); also called APFF S30L
B12: Fab VH1-46_IGHD6-6*01_IGHJ1*01 S102A/S103P/S104F/H111F (APFF) & L6_IGKJ1*01 S30Q (Fab, V domains shown)
VH: B1 VH
VL: B1 VL with G30Q
notes: Fab expressed in E. coli: VH joined to CH1 (Plasmid A, His6 and Flag tags), VL joined to kappa CL (Plasmid C); also called APFF S30Q
B13: Fab VH1-46_IGHD6-6*01_IGHJ1*01 S102A/S103P/S104F/H111F (APFF) & L6_IGKJ1*01 S28W (Fab, V domains shown)
VH: B1 VH
VL: B1 VL with S28W, G30S
notes: Fab expressed in E. coli: VH joined to CH1 (Plasmid A, His6 and Flag tags), VL joined to kappa CL (Plasmid C); also called APFF S28W
B14: Fab VH1-46_IGHD6-6*01_IGHJ1*01 S102A/S103P/S104F/H111F (APFF) & L6_IGKJ1*01 S30W (Fab, V domains shown)
VH: B1 VH
VL: B1 VL with G30W
notes: Fab expressed in E. coli: VH joined to CH1 (Plasmid A, His6 and Flag tags), VL joined to kappa CL (Plasmid C); also called APFF S30W
B15: Fab VH1-46_IGHD6-6*01_IGHJ1*01 S102A/S103P/S104F (APF) & L6_IGKJ1*01 S30L (Fab, V domains shown)
VH: B1 VH with F111H
VL: B1 VL with G30L
notes: Tested as a Fab; Expressed in E. coli from Plasmid A (CH1 with His6 and Flag tags) and Plasmid C (kappa CL); also called APF & S30L
B16: Fab VH1-46_IGHD6-6*01_IGHJ1*01 S102A/S103P/S104F (APF) & L6_IGKJ1*01 S30R (Fab, V domains shown)
VH: B1 VH with F111H
VL: B1 VL with G30R
notes: Tested as a Fab; Expressed in E. coli from Plasmid A (CH1 with His6 and Flag tags) and Plasmid C (kappa CL); also called APF & S30R
B17: Fab VH5-51_IGHD5-18*01>3_IGHJ4*01 G100K/G104T G24T/S28R/G35V (H:KT TRV) & V3-4_IGLJ1*01 V91L/S96P S57D (Fab, V domains shown)
VH: EVQLVQSGAEVKKPGESLKISCKTSGYRFTSYWIVWVRQMPGKGLEWMGIIYPGDSDTRYSPSFQGQVTISADKSISTAYLQWSSLKASDTAMYYCARRKYSYTYDYFDYWGQGTLVTVSS
VL: QTVVTQEPSFSVSPGGTVTLTCGLSSGSVSTSYYPSWYQQTPGQAPRTLIYSTNTRDSGVPDRFSGSILGNKAALTITGAQADDESDYYCLLYMGPGISYVFGTGTKVTVL
notes: Fab made in E. coli: VH in plasmid A (CH1, His6 and Flag tags), VL in plasmid E (lambda CL); also called H:KT TRV & L:LP S57D
B18: Fab VH5-51_IGHD5-18*01>3_IGHJ4*01 G100K/G104T G24T/S28R/G35V (H:KT TRV) & V3-4_IGLJ1*01 V91L/S96P S57Q (Fab, V domains shown)
VH: B17 VH
VL: B17 VL with D57Q
notes: Fab made in E. coli: VH in plasmid A (CH1, His6 and Flag tags), VL in plasmid E (lambda CL); also called H:KT TRV & L:LP S57Q

Numbering of substitutions follows the chain as printed. Names may count otherwise.

One test deals with T1, Recombinant Human DLL4 (R&D Systems Cat#1506-D4/CF) (human, UniProt Q9NR61 27-524).
T1 construct: Bought recombinant protein; also called delta-like protein 4; rHuman DLL4
In words: ECL multispot (MSD) binding assay, DLL4 spotted on plate, purified Fab in solution; Fab concentration not given.
For the molecule B1, the “ECL signal” value was found to be 180000.

In the case of B2, the “ECL signal” value came out at 133000.

Take B3: the “ECL signal” value is 1140.

In the case of B4, the “ECL signal” value is 146000.

Consider B5, for which the “ECL signal” value is 225000.

For the molecule B6, the “ECL signal” value worked out at 129000.

Regarding B7, the “ECL signal” value was 110000.

In the case of B8, the “ECL signal” value stood at 122000.

As to B9, the “ECL signal” value came out at 184000.

Turning to B10, the “ECL signal” value was 159000.

As for B11, the “ECL signal” value came to 199000.

On to B12, for which the “ECL signal” value was found to be 203000.

As for B13, the “ECL signal” value stood at 165000.

As to B14, the “ECL signal” value was found to be 191000.

A further test deals with T2, Recombinant Human DLL4 (R&D Systems Cat#1506-D4/CF) (human, UniProt Q9NR61 27-524).
T2 construct: Bought recombinant protein; also called delta-like protein 4; rHuman DLL4
In words: ECL (MSD) multispot binding assay, DLL4 spotted on plate, Fab in solution.
As to B15, the “ECL signal” value stood at 1630 and the Signal/Blank was found to be 6.9.

Turning to B16, the “ECL signal” value is 745 and the Signal/Blank was 7.8.

Another test addresses T1, Recombinant Human DLL4 (R&D Systems …). Briefly: ECL multispot (MSD) binding assay, DLL4 signal over blank spot; Fab concentration not given.
For B1, the Signal/Blank is 664.

Consider B2, for which the Signal/Blank is 378.

On to B3, for which the Signal/Blank stood at 4.4.

Consider B4, for which the Signal/Blank was 350.

Consider B5, for which the Signal/Blank came to 568.

Consider B6, for which the Signal/Blank is 141.

For the molecule B7, the Signal/Blank was 246.

For the molecule B8, the Signal/Blank turned out to be 300.

As for B9, the Signal/Blank is 516.

For the molecule B10, the Signal/Blank was 522.

In the case of B11, the Signal/Blank was 524.

Turning to B12, the Signal/Blank amounted to 1020.

For the molecule B13, the Signal/Blank is 545.

Regarding B14, the Signal/Blank came out at 660.

Another test addresses T3, Recombinant Human DLL4 (delta-like protein 4) (human, UniProt Q9NR61 27-524).
T3 construct: Bought recombinant human DLL4 (R&D Systems Cat#1506-D4/CF) coated on the ELISA plate; also called rHuman DLL4; Delta-like ligand 4
Briefly: ELISA, DLL4 coated on plate, 100 nM Fab. In general terms: In an ELISA, binding on a coated surface is turned into a signal by an enzyme label.
On to B17, for which the “ELISA Signal-blank (100 nM Fab)” value was found to be 0.17.

On to B18, for which the “ELISA Signal-blank (100 nM Fab)” value was found to be 0.21.
